Assays:
[1] = target: Theiler's murine encephalomyelitis virus (TMEV) 2A protein (Theiler's murine encephalomyelitis virus (TMEV)); experiment: SEC-MALS; Superdex 75 increase 10/300 GL, 20 mM Tris (HCl) pH 7.5, 1.0 M NaCl, 25°C; 100 µl injected at 3.1, 0.8 and 0.38 mg/ml (200, 51.5 and 24.5 µM); Figure 1B at 3.1 mg/ml; monomer and trimer peaks
[2] = target: T1, TMEV 2A (Theiler's murine encephalomyelitis …, UniProt P08545 923-1055); experiment: EMSA; EMSA: 10 mM Tris pH 7.4, ~140 mM NaCl, 2 mM Mg acetate, 1 mM DTT, 5% glycerol, tRNA, 50 nM RNA, 37 C 20 min; MST: buffer stated as 1x of 20 mM Tris pH 7.4/80 mM NaCl/4 mM Mg acetate/2 mM DTT (2x), ~140 mM NaCl final, 5 nM RNA, 25 C; ITC: 50 mM Tris pH 7.4, 400 mM NaCl, 25 C; conditions: protein: recombinant, tags: GST cleaved (3C protease), N-terminal GPLGS remnant, label: 5' Cy5
T1 sequence: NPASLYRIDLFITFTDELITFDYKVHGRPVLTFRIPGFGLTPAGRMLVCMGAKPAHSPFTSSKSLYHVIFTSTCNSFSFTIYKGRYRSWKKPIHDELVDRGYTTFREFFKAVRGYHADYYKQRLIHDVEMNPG

[3] = target: T1, TMEV 2A; experiment: MST; ~140 mM NaCl; EMSA: 10 mM Tris pH 7.4, ~140 mM NaCl, 2 mM Mg acetate, 1 mM DTT, 5% glycerol, tRNA, 50 nM RNA, 37 C 20 min; MST: buffer stated as 1x of 20 mM Tris pH 7.4/80 mM NaCl/4 mM Mg acetate/2 mM DTT (2x), ~140 mM NaCl final, 5 nM RNA, 25 C; ITC: 50 mM Tris pH 7.4, 400 mM NaCl, 25 C; conditions: protein: recombinant, tags: GST cleaved (3C protease), N-terminal GPLGS remnant, label: 5' Cy5 (EMSA, MST); for Kd: stem-loop/pseudoknot-like
[4] = target: T1, TMEV 2A; experiment: ITC; 400 mM NaCl; ~1:1 stoichiometry; EMSA: 10 mM Tris pH 7.4, ~140 mM NaCl, 2 mM Mg acetate, 1 mM DTT, 5% glycerol, tRNA, 50 nM RNA, 37 C 20 min; MST: buffer stated as 1x of 20 mM Tris pH 7.4/80 mM NaCl/4 mM Mg acetate/2 mM DTT (2x), ~140 mM NaCl final, 5 nM RNA, 25 C; ITC: 50 mM Tris pH 7.4, 400 mM NaCl, 25 C; conditions: protein: recombinant; tags: GST cleaved (3C protease); N-terminal GPLGS remnant; label: 5' Cy5 (EMSA, MST); none (ITC, SEC-MALS); stem-loop/pseudoknot-like
[5] = target: T1, TMEV 2A; experiment: EMSA; ~140 mM NaCl, tRNA; EMSA: 10 mM Tris pH 7.4, ~140 mM NaCl, 2 mM Mg acetate, 1 mM DTT, 5% glycerol, tRNA, 50 nM RNA, 37 C 20 min; MST: buffer stated as 1x of 20 mM Tris pH 7.4/80 mM NaCl/4 mM Mg acetate/2 mM DTT (2x), ~140 mM NaCl final, 5 nM RNA, 25 C; ITC: 50 mM Tris pH 7.4, 400 mM NaCl, 25 C; conditions: protein: recombinant; tags: GST cleaved (3C protease); N-terminal GPLGS remnant; label: 5' Cy5 (EMSA, MST); hairpin, 7 bp stem

Molecule “Theiler's murine encephalomyelitis virus (TMEV) 2A protein (natural protein)” has a stoichiometry N [1] of 3.

ACAAGGUGCGGUGCUAACUAAAUCCCUAGCACCCC (structured_RNA) [TMEV 8]: binds ([2]; stem-loop/pseudoknot-like).

CACAAGGUGCGGUGCUAACUAAAUCCCUAGCACCCC (structured_RNA) [TMEV 7]: binds ([2]; stem-loop/pseudoknot-like).

With CCACAAGGUGCGGUGCUAACUAAAUCCCUAGCACCCC (structured_RNA) [TMEV 6] the Kd ([3]; none (ITC, SEC-MALS)) was 280 ± 40 nM and the Kd [4] was 67 ± 7 nM.

CAAGGUGCGGUGCUAACUAAAUCCCUAGCACCCC (structured_RNA) [TMEV 9]: binds ([2]; pseudoknot-like, G17-C38 pair).

CAACGUGCGGUGCUAACUAAAUCCGUAGCACCCC (structured_RNA) [TMEV 9 G17C+C38G]: no binding ([2]; compensatory pair 17-38).

CAACGUGCGGUGCUAACUAAAUCCCUAGCACCCC (structured_RNA) [TMEV 9 G17C]: no binding ([2]; stem-loop).

GGGUUUUUCAGCCACAAGGUGCGGUGCUAACUAAAUCCCUAGCACCCC (structured_RNA) [TMEV 3] showed a Kd [3] of 495 ± 110 nM.

GCGGUGCUAACUAAAUCCCUAGCACCCC (structured_RNA) [TMEV 4]: no binding [5].

GCGGUGCUAACUAAAUCCCUAGCACCCCAGGCAGGAA (structured_RNA) [TMEV 2]: no binding ([3]; hairpin).

Molecule CCACAAGGUGCGGUGCUAACUAAAUCCCUAGCACCCCAGGCAGGAA (structured_RNA) [TMEV 1] has a Kd [3] of 484 ± 90 nM.

CCACAACGUGCGGUGCUAACUAAAUCCGUAGCACCCCAGGCAGGAA (structured_RNA) [TMEV 1 G17C+C38G]: no binding ([2]; compensatory pair 17-38).

GGUGCGGUGCUAACUAAAUCCCUAGCACCCC (structured_RNA) [TMEV 12]: no binding ([2]; stem-loop).
